Target: M3R-YFP (muscarinic acetylcholine receptor M3 with YFP fused C-terminally) (UniProt P20309)
Test: FRET or BRET; single-cell FRET in HEK293T cells transfected with M3R-YFP, Gαq, Gβ1 and mTurquoise2-Gγ2; laminar superfusion with buffer (137 mM NaCl, 5.4 mM KCl, 2 mM CaCl2, 1 mM MgCl2, 10 mM HEPES, pH 7.3) or agonist (ACh 30 µM, Metha, Fur, Are, Guva, Pilo, Mda one after the other in the same cell); amplitudes normalized to ACh; room temperature

UniProt P20309, sequence (P20309 whole entry, the tested form may be a part): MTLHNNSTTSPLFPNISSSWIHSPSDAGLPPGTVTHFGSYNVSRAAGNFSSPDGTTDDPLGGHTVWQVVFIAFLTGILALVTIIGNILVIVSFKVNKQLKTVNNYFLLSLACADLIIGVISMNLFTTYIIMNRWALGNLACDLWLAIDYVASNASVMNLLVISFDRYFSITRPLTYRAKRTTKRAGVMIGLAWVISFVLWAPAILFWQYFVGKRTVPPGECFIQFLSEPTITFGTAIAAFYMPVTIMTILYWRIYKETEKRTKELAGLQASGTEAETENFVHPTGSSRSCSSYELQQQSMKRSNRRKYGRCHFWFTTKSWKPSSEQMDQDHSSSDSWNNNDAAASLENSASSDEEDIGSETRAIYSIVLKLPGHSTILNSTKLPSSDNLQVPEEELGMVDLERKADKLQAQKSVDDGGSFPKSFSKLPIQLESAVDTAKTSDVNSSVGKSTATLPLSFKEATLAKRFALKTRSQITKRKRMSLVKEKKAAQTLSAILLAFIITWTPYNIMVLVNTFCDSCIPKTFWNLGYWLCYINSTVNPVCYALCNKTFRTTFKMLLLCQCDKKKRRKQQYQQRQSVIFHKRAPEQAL

FRET amplitude with Are as agonist, relative to ACh (% of the ACh signal): 20 | FRET amplitude with Fur as agonist, relative to ACh (% of the ACh signal): 60 | FRET amplitude with Guva as agonist, relative to ACh (% of the ACh signal): 20 | FRET amplitude with Mda as agonist, relative to ACh (% of the ACh signal): 8 | FRET amplitude with Metha as agonist, relative to ACh (% of the ACh signal): 60 | FRET amplitude with Pilo as agonist, relative to ACh (% of the ACh signal): 8
Substance: Gq protein (Gαq, Gβ1 and mTurquoise2-Gγ2) (from UniProt P50148 1-359; P62873 1-340; P59768 1-71) (complex; other documents disagree on this pair)
